Results: patent publication US7122342 (ZymoGenetics, dated 2006)
Positions count from the first letter of the chain named.

T1: protease-activated receptor 4 (PAR4), wild type, expressed on transiently transfected COS-7 cells
T1 sequence: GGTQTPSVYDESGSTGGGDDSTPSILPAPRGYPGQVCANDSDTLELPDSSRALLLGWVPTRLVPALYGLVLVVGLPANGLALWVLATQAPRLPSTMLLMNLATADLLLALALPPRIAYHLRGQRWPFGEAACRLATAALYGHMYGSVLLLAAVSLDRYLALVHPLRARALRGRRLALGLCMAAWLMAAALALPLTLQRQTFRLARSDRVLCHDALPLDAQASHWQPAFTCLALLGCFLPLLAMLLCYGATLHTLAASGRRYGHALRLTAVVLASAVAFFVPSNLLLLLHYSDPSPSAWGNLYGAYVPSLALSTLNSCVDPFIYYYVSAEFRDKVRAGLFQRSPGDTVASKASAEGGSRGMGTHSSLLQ

T2: PAR4 mutant R68A, expressed on COS cells
T2 sequence: T1 sequence with R51A

T3: protease-activated receptor 4 (PAR4), wild type, expressed on transiently transfected COS-7 cells (human, UniProt Q96RI0 18-385)
T3 sequence: T1 sequence

B1: PAR4 activating peptide, hexapeptide GYPGQV (peptide)
peptide: GYPGQV

molecular target: protease-activated receptor 4 (PAR4), wild type, expressed on transiently transfected COS-7 cells (human) (UniProt Q96RI0); assay: cell-based or functional assay

Molecule	phosphoinositide hydrolysis, half-maximal concentration (EC50)
thrombin (alpha-thrombin) (enzyme)	5 nM
trypsin (enzyme)	5 nM

test system: T1, protease-activated receptor 4 (PAR4), wild type, expressed on transiently transfected COS-7 cells; assay: not given

Molecule	phosphoinositide hydrolysis (activation of PAR4)
chymotrypsin	Chymotrypsin and elastase failed to activate PAR4
elastase	Chymotrypsin and elastase failed to activate PAR4
factor IXa	had little or no activity against PAR4
factor VIIa	had little or no activity against PAR4
factor XIa	had little or no activity against PAR4
factor Xa	Small effects, however, were observed with factor Xa at high concentrations (100 nM)
plasmin	had little or no activity against PAR4
urokinase	had little or no activity against PAR4

test system: T2, PAR4 mutant R68A, expressed on COS cells; assay: not given

Molecule	phosphatidylinositol 4,5 diphosphate hydrolysis assay
thrombin (alpha-thrombin)	(R68A) had no effect on PAR4 activation by thrombin or trypsin
trypsin	(R68A) had no effect on PAR4 activation by thrombin or trypsin

molecular target: T3, protease-activated receptor 4 (PAR4), …; assay: cell-based or functional assay

Molecule	EC50 of activation of PAR4 on COS cells
B1	~100000 nM
